Consider five molecules from US20220340682A1 (Sanofi, published 2022).

Experiment [1] addresses T1, cCEACAM5, M. fascicularis CEACAM5 ECD (35-688) (Macaca fascicularis).
T1 construct: ECD followed by a 24 amino acid extension containing a His-Tag; also called cynomolgus CEACAM5; monkey CEACAM5
T1 chain: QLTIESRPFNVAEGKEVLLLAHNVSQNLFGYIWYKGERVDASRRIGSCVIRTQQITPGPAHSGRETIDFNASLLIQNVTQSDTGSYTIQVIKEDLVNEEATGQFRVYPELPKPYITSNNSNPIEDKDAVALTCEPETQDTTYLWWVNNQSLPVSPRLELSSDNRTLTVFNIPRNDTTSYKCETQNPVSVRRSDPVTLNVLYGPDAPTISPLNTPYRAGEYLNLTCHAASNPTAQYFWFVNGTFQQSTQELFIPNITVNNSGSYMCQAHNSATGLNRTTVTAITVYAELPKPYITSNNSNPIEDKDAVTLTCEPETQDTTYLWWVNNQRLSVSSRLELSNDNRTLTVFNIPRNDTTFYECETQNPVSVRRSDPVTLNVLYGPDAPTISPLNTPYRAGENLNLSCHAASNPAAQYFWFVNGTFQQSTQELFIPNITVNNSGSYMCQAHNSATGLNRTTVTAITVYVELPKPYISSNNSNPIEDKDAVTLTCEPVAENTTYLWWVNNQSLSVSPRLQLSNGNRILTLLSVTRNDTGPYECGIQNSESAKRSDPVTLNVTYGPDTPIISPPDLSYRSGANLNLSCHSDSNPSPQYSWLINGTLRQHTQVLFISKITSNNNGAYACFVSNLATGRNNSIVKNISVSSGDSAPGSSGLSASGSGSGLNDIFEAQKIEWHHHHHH
Put plainly: ELISA, chimeric mAb. Background: In an ELISA, binding on a coated surface is turned into a signal by an enzyme label.

Experiment [2] has as its target T2, hCEACAM5, human CEACAM5 ECD (35-685) (human, UniProt P06731 35-685).
T2 construct: produced in HEK293; also called human CEACAM5 protein; human CEACAM5 extracellular domain
T2 sequence: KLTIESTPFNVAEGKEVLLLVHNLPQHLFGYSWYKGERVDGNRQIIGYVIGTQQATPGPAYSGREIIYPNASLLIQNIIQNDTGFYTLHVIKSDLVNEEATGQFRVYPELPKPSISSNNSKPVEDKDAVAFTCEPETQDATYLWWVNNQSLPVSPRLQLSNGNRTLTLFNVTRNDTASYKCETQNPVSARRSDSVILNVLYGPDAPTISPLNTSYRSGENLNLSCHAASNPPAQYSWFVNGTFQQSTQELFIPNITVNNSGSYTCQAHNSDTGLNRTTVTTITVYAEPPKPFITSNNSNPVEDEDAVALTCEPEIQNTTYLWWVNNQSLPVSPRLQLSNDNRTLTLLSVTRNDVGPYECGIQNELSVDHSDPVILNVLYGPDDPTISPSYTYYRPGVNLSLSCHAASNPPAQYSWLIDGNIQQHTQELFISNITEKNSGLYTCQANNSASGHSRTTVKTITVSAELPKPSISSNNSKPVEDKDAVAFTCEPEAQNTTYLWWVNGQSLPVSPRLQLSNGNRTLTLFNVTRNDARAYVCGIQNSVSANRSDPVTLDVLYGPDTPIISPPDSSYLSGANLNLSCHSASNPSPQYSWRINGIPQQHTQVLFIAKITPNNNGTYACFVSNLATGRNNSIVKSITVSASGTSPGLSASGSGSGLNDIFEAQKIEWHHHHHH
Nature of the experiment: ELISA, chimeric mAb.

Experiment [3] has as its target T1, cCEACAM5, M. fascicularis CEACAM5 ECD …. Put plainly: ELISA, murine hybridoma mAb.

Numbering of substitutions follows the chain as printed. “And” between values parts separate entries of the source, which are not always exact repeats. Identical values can stand only once.

B1: chMAb2 (antibody, human IgG1, kappa, V domains shown)
VH: EVQLQESGGVLVKPGGSLKLSCAASGFVFSSYDMSWVRQTPEKRLEWVAYISSGGGITYFPDTVQGRFTVSRDNAKNTLYLQMNSLKSEDTAIYYCAAHYFGSSGPFAYWGQGTLVTVSA
VL: DIQMTQSPASLSASVGETVTITCRASENIFSYLAWYQQKQGKSPQLLVYNTKTLAEGVPSRFSGSGSGTQFSLKINSLQPEDFGSYYCQHHYGTPFTFGSGTKLEIKR
notes: Chimeric, human IgG1, Ck isotype; also called MAb2-IgG1; chimeric MAb2
For orientation: EC50 means the concentration needed to bring the measured effect to its halfway point. Higher therefore signals lower potency in that assay. As for B1, the half-maximal effective concentration (EC50) in experiment [1] was 130 pM and 170 pM; in experiment [2], 160 pM and 140 pM.

B2: antibody MAb4 (antibody, IgG1, V domains shown)
VH: EVQLVESGGGLVKPGGSLKLSCAASGFTFSSYDMSWVRQTPEKRLEWVAFISSYGGRTYYADTVKGRFTISRDNAKNTLYLQMSSLKSEDTAMFYCAAHYFGTSGPFAYWGQGTLVTVSA
VL: DIQMTQSPASLSASVGETVTITCRASENIYSYFAWYQQKQGKSPQLLVYNAKILAEGVPSRFSGSGSGTQFSLKINSLQPEDFGTYYCQHHYGIPFTFGSGTKLELK
notes: Murine monoclonal from hybridoma, IgG1, kappa
On to B2, for which a half-maximal response in experiment [3] (EC50) required 50 pM.

B3: antibody MAb5 (antibody, IgG1, V domains shown)
VH: ELQLVESGGVLVKPGGSLKLSCAASGFAFSSYDMSWVRQTPEKRLEWVTYINSGGGITYYPDTVKGRFTISRDNARNTLYLQMSSLKSEDTAIYYCTAHYFGSSGPFAYWGQGTLVTVSA
VL: B2 VL with F33L, I53T, A55T, T85S, I94T, L106I
notes: as for B2
For B3, the concentration giving a half-maximal response (EC50) in experiment [3] turned out to be 450 pM.

B4: antibody MAb1 (antibody, IgG1, V domains shown)
VH: EVMLVESGGGLVKPGGSLKLSCAASGFTFSSYAMSWVRQTPEKRLEWVATISSGGSYIYYLDSVKGRFTISRDNAKNTLYLQMSSLRSEDTAMYYCARPAYYGNPAMDYWGQGTSVTVSS
VL: DILMTQSQKFMSTSVGDRVSVTCKASQNVGTNVAWYQQKPGQSPKPLIYSASYRYSGVPDRFTGSGSGTDFTLTISNVQSEDLAEYFCQQYNSYPLYTFGGGTKLEIK
For the molecule B4, it took 1180 pM to reach a half-maximal effect in experiment [3] (EC50).

B5: antibody MAb3 (antibody, IgG1, V domains shown)
VH: EVKLVESGGGLVKPGGSLTLPCAASGFTFSRYAMSWVRQTPEKRLEWVASISSGGDTYYPDSVKGRFTVSRDNARNILFLQMSSLRSEDTGMYYCARVNYYDSSFLDWWGQGTTLTVSS
VL: B4 VL with L3V, K9R, S14L, V15E, P46A, S93N
notes: as for B2
As to B5, the concentration for a half-maximal effect (EC50) in experiment [3] turned out to be 3720 pM.
